Assay [1] has as its target biotinylated IgG. Briefly: BIAcore, biotinylated IgG immobilised, mutein injected. On the technique in general: In SPR one partner is held on a chip, and binding of the other changes the refractive index at the surface.
For assay [2], the target named is biotinylated IgG. Briefly: BIAcore; half-life calculated as 0.693/koff/60.

Usually Kd stands for the free concentration of one partner at which half of the binding sites on the other are occupied at equilibrium, for simple one-to-one binding. Low values mean tighter binding, high ones weaker binding. As usually defined, the koff is the first-order rate constant of dissociation. A low value points to a long-lived complex. Usually kon stands for a measure of how fast the partners come together. Read a low kon as slower complex formation.

6-aa-loop mutein (streptavidin, loop7-8 replaced by D S N G S G), sequence (P22629 other isoform, or with tags, fused parts or gaps mutant): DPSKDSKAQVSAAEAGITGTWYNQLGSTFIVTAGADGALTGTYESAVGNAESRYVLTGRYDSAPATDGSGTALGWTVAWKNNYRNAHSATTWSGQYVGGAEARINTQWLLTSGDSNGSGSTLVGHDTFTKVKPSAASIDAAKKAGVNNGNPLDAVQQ
2-aa-loop mutein (streptavidin, loop7-8 replaced by N G), sequence (P22629 other isoform, or with tags, fused parts or gaps mutant): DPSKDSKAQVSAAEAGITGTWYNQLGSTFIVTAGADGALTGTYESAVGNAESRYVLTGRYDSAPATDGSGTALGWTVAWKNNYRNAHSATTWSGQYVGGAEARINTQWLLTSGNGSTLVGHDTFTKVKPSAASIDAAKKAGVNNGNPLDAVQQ

In the assay with biotinylated IgG [1], “6-aa-loop mutein (streptavidin, loop7-8 replaced by D S N G S G) (from UniProt P22629 25-183)” yielded a dissociation constant Kd of 3.13 nM, a koff of 7.59e-05 s⁻¹ and a kon of 24300 M⁻¹ s⁻¹. Besides, the t1/2 with biotinylated IgG [2] was 2.53 h.
Taken in the same sequence, the figures for “8-aa-loop-H127C mutein (streptavidin, loop7-8 replaced by D S S N G S D G, with H127C) (from UniProt P22629 25-183)” were 19 nM, 0.000428 s⁻¹, 22100 M⁻¹ s⁻¹ and 0.45 h.
Taken in the same sequence, the figures for “ΔW-HC mutein (streptavidin with Trp-120 deleted and H127C) (from UniProt P22629 25-183)” were 8.1 nM, 0.0004 s⁻¹, 49600 M⁻¹ s⁻¹ and 0.482 h.
In the assay with biotinylated IgG [1], “2-aa-loop mutein (streptavidin, loop7-8 replaced by N G) (from UniProt P22629 25-183)” yielded an equilibrium dissociation constant (Kd) of 1.12 nM, a koff of 7.02e-05 s⁻¹ and a kon of 63000 M⁻¹ s⁻¹. Further, the t1/2 in the assay with biotinylated IgG [2] is 2.75 h.

(Values after US20130035471A1.)
